The chains are these.
B1: C156 (antibody, V domains shown)
VH: QVQLVESGGGVVQPGRSLRLSCAASGFTFSNYGMHWVRQAPGKGLEWVAVISYDGNNKYYADSVKGRFTISRDNSKNTLYLQMNSLRAEDTAVYYCAKDPFPLAVAGTGYFDYWGQGTLVTVSS
VL: SYELTQPPSVSVAPGQTARISCGGNNIGSKNVHWYQQKPGQAPVLVVYDDSDRPSGIPERFSGSNSGNTATLTISRVEAGDEADYYCQVWDSSSDPWVFGGGTKLTVL
B2: C131 (antibody, V domains shown)
VH: QVQLVQSGSEVKKPGSSVKVSCKASGGTFSSYAFSWVRQAPGQGLEWMGRIIPILALANYAQKFQGRVTITADKSTSTAYMELSSLRSEDTAVYYCARVNQAVTTPFSMDVWGQGTTVTVSS
VL: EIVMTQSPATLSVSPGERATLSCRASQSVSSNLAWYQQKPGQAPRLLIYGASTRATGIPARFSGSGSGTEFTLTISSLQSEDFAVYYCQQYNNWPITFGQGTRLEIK
B3: C115 (antibody, V domains shown)
VH: QVQLVESGGGLIKPGRSLRLSCTASGFTFGDYAMTWFRQAPGKGLEWVGFIRSKAYGGTTGYAASVKYRFTISRDDSKSIAYLQMDSLKTEDTAVYYCTRWDGWSQHDYWGQGTLVTVSS
VL: DIVMTQSPLSLSVTPGEPASISCRSSQSLLHSNGNNYFDWYLQKPGQSPQLLIYLGSNRASGVPDRFSGSGSGTDFTLKISRVEAEDVGVYYCMQVLQIPYTFGQGTKLEIK
B4: C113 (antibody, V domains shown)
VH: QVQLVESGGGVVQPGRSLRLSCAASGFTFSNFGMHWVRQAPGKGLEWVAVIWYDGSNKYYADSVKGRFTISRDNSKNTLYLQMNSLRAEDTAVYYCARGVNPDDILTGVDAFDIWGQGTMVTVSS
VL: DIQMTQSPSTLSASVGDRVTITCRASQSMSSWLAWYQQKPGNAPKLLIYKASSLESGVPSRFSGSGSGTEFTLTISSLQPDDFATYYCQQHNSSPLTFGGGTKVEIK
B5: C146 (antibody, V domains shown)
VH: EVQLVESGGGLVKPGGSLRLSCAASGLTFTAYRMNWVRQAPGKGLEWLSSISNTNGDIYYADSVKGRFTISRDNAKNSLYLQMNSLRADDTAVYYCARDVASNYAYFDLWGQGTLVTVSS
VL: QSALTQPASVSGSPGQSITISCTGTSSDIGVYNYISWSQQHPGKAPKVMIYDVTNRPSGVSNRFSGSKSGNTASLTISGLQAEDEADYYCSSYRGSSTPYVFGTGTKVTVL
B6: C010 (antibody, V domains shown)
VH: EVQLVESGGGVVQPGRSLRLSCAASGFTFSSYAMHWVRQAPAKGLEWVAVILYDGSGKYYADSVKGRFTISRDNSKNTLYLQMNSLRAEDTAVYYCARDGIVDTALVTWFDYWGQGTLVTVSS
VL: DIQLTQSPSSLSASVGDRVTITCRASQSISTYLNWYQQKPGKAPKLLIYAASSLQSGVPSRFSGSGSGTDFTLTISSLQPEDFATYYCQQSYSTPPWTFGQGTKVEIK
B7: C133 (antibody, V domains shown)
VH: B6 VH with E1Q, A42G, G57N, G100S, I101D, A105S, L106M
VL: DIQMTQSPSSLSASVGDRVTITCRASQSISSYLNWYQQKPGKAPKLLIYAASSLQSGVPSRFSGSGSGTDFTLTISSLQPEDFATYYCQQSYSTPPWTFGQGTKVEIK
B8: C119 (antibody, V domains shown)
VH: QVQLVQSGAEVKKPGASVKVSCKASGYTFTSYYMHWVRQAPGQGLEWMGIINPSGGSTSYAQKLQGRVTMTRDTSTSTVYMELSSLRSEDTAVYYCARANHETTMDTYYYYYYMDVWGKGTTVTVSS
VL: QSALTQPASVSGSPGQSITISCTGTSSDVGGYKYVSWYQRHPGKAPKLMIYDVSNRPSGVSNRFSGSKSGNTASLTISGLQAEDEADYYCSSYTSSSTSVVFGGGTQLTVL
B9: C165 (antibody, V domains shown)
VH: QVQLVQSGAEVKKPGSSVKVSCKASGGTFSSYAINWVRQAPGQGLEWMGRIIPIVGIANYAQKFQGRVTITADKSSSTAYMELSSLRSEDTAVYYCARDLLDPQLDDAFDIWGQGTMVTVSS
VL: not shown
B10: C126 (antibody, V domains shown)
VH: QVQLQESGPGLVKPSETLSLSCAVSGGSIGSYFWSWIRQPPGKGLEWIGYLHYSGSTNYNPSLKSRVTISVDTSKNQFSLKLSSVTAADTAVYYCARLQWLRGAFDIWGQGTMVTVSS
VL: NFMLTQPHSVSESPGKTVTISCTGSSGSIASNYVQWYQQRPGSAPTTVINEDNQRPSGVPDRFSGSIDSSSNSASLTISGLKTEDEADYYCQSYDSSNLVFGGGTKLTVL
B11: C144 (antibody, V domains shown)
VH: EVQLVESGGGLIQPGGSLRLSCAASGFTVSNNYMSWVRQAPGKGLEWVSVIYSGGSTYYADSVKGRFTISRDKSKNTLYLQMNRLRAEDTAVYYCAREGEVEGYNDFWSGYSRDRYYFDYWGQGTLVTVSS
VL: QSALTQPASVSGSPGQSITISCTGTSSDVGGYNYVSWYQQHPGKAPKLMIYDVSNRPSGVSNRFSGSKSGNTASLTISGLQAEDEADYYCSSYTSSSTRVFGTGTKVTVL
B12: C112 (antibody, V domains shown)
VH: QVQLVESGGGVVQPGRSLRLSCAASGFTFSSHAMHWVRQAPGKGLEWVAVISYDGSNKYYADSVKGRFTISRDNSKNTLYLQMNSLRAEDTAVYYCAREDYYDSSGSFDYWGQGTLVTVSS
VL: B11 VL with R99W, T103G, V107L
B13: C108 (antibody, V domains shown)
VH: QVQLQESGPGLVKPSGTLSLTCAVSGGSISSTNWWSWVRQPPGKGLEWIGEIYHTGSTNYNPSLKSRVTISVDKSKNQFSLKLSSVTAADTAVYYCVRDGGRPGDAFDIWGQGTMVTVSS
VL: B11 VL with S91N
B14: C132 (antibody, V domains shown)
VH: QVQLQESGPGLVKPSGTLSLTCAVSGGSISSNNWWSCVRQPPGKGLEWIGEIYHSGSTNYNPSLKSRVTISVDKSKNQFSLKLSSVTAADTAVYYCARGGDTAMGPEYFDYWGQGTLVTVSS
VL: B11 VL with R99L, V100L, T103G, V107L
B15: C145 (antibody, V domains shown)
VH: B11 VH with T28S, N31S, K73N, R84S, N105Y
VL: B11 VL with S97T, K106R
B16: C124 (antibody, V domains shown)
VH: EVQLVESGGGLVQPGGSLRLSCAASGFTFSGYSMNWVRQAPGKGPEWVSYISRSSSTIYYADSVKGRFTISRDNAKNSLYLQMNSLRDEDTAVYYCAREGARVGATYDTYYFDYWGQGTLVTVSS
VL: EIVLTQSPATLSLSPGERATLSCRASQSFSSYLAWYQQKPGQAPRLLIYDASNRATGIPARFSGSGSGTDFTLTISSLEPEDFAVYYCQQRNNWPPEWTFGQGTKVEIK
B17: C153 (antibody, V domains shown)
VH: EVQLVESGGGLIQPGGSLRLSCAASGFTVSSNYMSWVRQAPGKGLEWVSVIYSGYSTYYVDSVKGRFTISRDNSKNTLYLQMNSLRAEDTAVYYCARVGGAHSGYDGSFDYWGQGTLVTVSS
VL: QSALTQPASVSGSPGQSITISCTGTSSDVGSYNLVSWYQQHPGKAPKLMIYEGSKRPSGVSNRFSGSKSGNTASLTISGLQAEDEADYYCCSYAGSSTWVFGGGTKLTVL
B18: C102 (antibody, V domains shown)
VH: QVQLVESGGGLIQPGGSLRLSCAASGFIVSSNYMSWVRQAPGKGLEWVSVIYSGGSTFYADSVKGRFTISRDNSKNTLYLQMNSLRAEDTAVYYCARDYGDYYFDYWGQGTLVTVSS
VL: not shown
B19: C003 (antibody, V domains shown)
VH: B18 VH with Q1E, I28T, F58Y, E88G, Y102F
VL: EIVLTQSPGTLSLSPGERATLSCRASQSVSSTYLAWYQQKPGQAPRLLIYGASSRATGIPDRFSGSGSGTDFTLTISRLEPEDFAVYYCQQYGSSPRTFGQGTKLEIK
B20: C027 (antibody, V domains shown)
VH: EVQLVESGGGVVQPGRSLRLSCAASGFTFSSYGMHWVRQAPGKGLEWVAVISYDGSNKYYADSVKGRFTISRDNSKNTLYLQMNSLRAEDTAVYYCAKASGIYCSGGDCYSYYFDYWGQGTLVTVSS
VL: not shown
B21: C105 (antibody, V domains shown)
VH: QVQLVESGGGLIQPGGSLRLSCAASGFTVSSNYMSWVRQAPGKGLEWVSVIYSGGSTYYADSVKGRFTISRDNSKNTLYLQMNSLRAEDTAVYYCARGEGWELPYDYWGQGTLVTVSS
VL: QSALTQPPSASGSPGQSVTISCTGTSSDVGGYKYVSWYQQHPGKAPKLMIYEVSKRPSGVPDRFSGSKSGNTASLTVSGLQAEDEADYYCSSYEGSNNFVVFGGGTKLTVL
B22: C207 (antibody, V domains shown)
VH: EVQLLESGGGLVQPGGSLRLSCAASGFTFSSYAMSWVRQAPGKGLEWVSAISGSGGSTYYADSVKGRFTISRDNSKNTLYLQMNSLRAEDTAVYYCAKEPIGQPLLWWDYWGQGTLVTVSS
VL: EIVLTQSPATLSLSPGERATLSCRASQSVSSYLAWYQQKPGQAPRLLIYDASNRATGIPARFSGSGSGTDFTLTISSLEPEDFAVYYCQQRSNWPRGFGQGTKVEIK

Changes are numbered by the printed parent chain.

The target in one test is SARS-CoV-2 RBD (SARS-CoV-2, UniProt P0DTC2). In words: ELISA.
One may read the EC50 as the concentration that produces a half-maximal response. In turn, B1 gave an EC50 of 3.32 ng/mL.

With B2, the midpoint of the response, the EC50, lay at 1.67 ng/mL.

In the case of B3, the EC50 was 3.4 ng/mL.

The molecule B4 gave a half-maximal effective concentration (EC50) of 6.93 ng/mL. Compared with the last molecule, the EC50 is about 2-fold higher.

The molecule B5 had a 50% effective concentration (EC50) above 1000 ng/mL.

In turn, B6 gave an EC50 of 5.44 ng/mL.

In turn, B7 showed an EC50 of 1.98 ng/mL.

Consider B8, for which the EC50 came to 3.57 ng/mL.

On to B9, for which the midpoint of the response, the EC50, lay at 4.25 ng/mL.

Molecule B10 gave an EC50 of 4.78 ng/mL.

With B11, the EC50 was 3.24 ng/mL.

B12: the EC50 amounted to 3.38 ng/mL. The EC50 values of the last two molecules are within 1.5-fold of each other.

B13: the EC50 was found to be 5.32 ng/mL.

For the molecule B14, the midpoint of the response, the EC50, lay at 2.92 ng/mL.

B15 came in with an EC50 of 3.86 ng/mL. The EC50 values of the last two molecules are within 1.5-fold of each other.

In the case of B16, the EC50 came out at 2.23 ng/mL.

Molecule B17 had an EC50 of 3.17 ng/mL. The EC50 values of the last two molecules are within 1.5-fold of each other.

For B18, the midpoint of the response, the EC50, lay at 4.54 ng/mL.

Molecule B19 registered an EC50 of 6.37 ng/mL.

Turning to B20, the EC50 turned out to be 2.65 ng/mL.

For the molecule B21, the EC50 came to 5.2 ng/mL.

In the case of B22, the EC50 stood at 1.87 ng/mL. Compared with the last molecule, the EC50 is about 2.8-fold lower.

The target of another test is SARS-CoV RBD (SARS-CoV, UniProt P59594). In words: ELISA. On the technique in general: In an ELISA, binding on a coated surface is turned into a signal by an enzyme label.
As to B1, the EC50 is above 1000 ng/mL.

As for B2, the concentration for a half-maximal effect (EC50) was above 1000 ng/mL.

B3 registered an EC50 above 1000 ng/mL.

In turn, B4 displayed an EC50 above 1000 ng/mL.

Regarding B5, the EC50 is above 1000 ng/mL.

As for B6, the EC50 is above 1000 ng/mL.

For B7, the EC50 is above 1000 ng/mL.

As to B8, the EC50 was above 1000 ng/mL.

Take B9: the EC50 is above 1000 ng/mL.

Molecule B10 showed an EC50 above 1000 ng/mL.

As for B11, the concentration giving a half-maximal response (EC50) was above 1000 ng/mL.

B12 registered an EC50 above 1000 ng/mL.

The molecule B13 registered an EC50 above 1000 ng/mL.

For B14, the EC50 was above 1000 ng/mL.

In the case of B15, the EC50 is above 1000 ng/mL.

The molecule B16 gave an EC50 above 1000 ng/mL.

Molecule B17 gave an EC50 above 1000 ng/mL.

Molecule B18 displayed an EC50 above 1000 ng/mL.

Turning to B19, the EC50 was above 1000 ng/mL.

Molecule B20 yielded an EC50 of 696 ng/mL.

The molecule B21 registered a concentration for a half-maximal effect (EC50) above 1000 ng/mL.

In the case of B22, the EC50 was above 1000 ng/mL.

The values are drawn from patent publication US11634477 (dated 2023).
